Article PMC5473807, “Distribution and kinetics of the Kv1.3-blocking peptide HsTX1[R14A] in experimental rats” (Scientific Reports, 2017)
Like-named read-outs stand apart in the source and are kept apart here.

Assay: In vivo biodistribution by organ and tissue extraction
Parameters: species or system male Wistar rats
Conditions: for SUV at 5 min / tissue uptake dose at 5 min / SUV at 1 h / tissue uptake dose at 1 h / SUV at 4 h / tissue uptake dose at 4 h / SUV at 24 h / tissue uptake dose at 24 h / SUV at 48 h / tissue uptake dose at 48 h: male, Wistar, total radioactivity, rat, mean ± SD; for SUV at 5 min / tissue uptake dose at 5 min: 5 min p.i.; for SUV at 1 h / tissue uptake dose at 1 h: 60 min p.i.; for SUV at 4 h / tissue uptake dose at 4 h: 240 min p.i.; for SUV at 24 h / tissue uptake dose at 24 h: 1440 min p.i.; for SUV at 48 h / tissue uptake dose at 48 h: 2880 min p.i.
Procedure: The present study includes data obtained from a total of 50 animals. Four animals (body weight 227 ± 10 g) for each time point were injected intravenously into a tail vein or subcutaneously with approximately 0.3 MBq ([…]) [^64Cu]Cu-NOTA-HsTX1[R14A] conjugate in 0.5 mL electrolyte solution E-153 (Serumwerk Bernburg, Germany). Animals were euthanised at 5, 60, 240, 1440 and 2880 min post-injection. Blood and the major organs were collected, weighed, and counted in a cross-calibrated γ-counter (Isomed 1000, Isomed GmbH, Dresden) and Wallac WIZARD Automatic Gamma Counter (PerkinElmer, Germany). The radioactivity of the tissue samples was decay-corrected and calibrated by comparing the counts in tissue with the counts in aliquots of the injected radiotracer that had been measured in the γ-counter at the same time. The activity in the selected organs was expressed as percent-injected dose per organ (% ID) and the activity concentration in tissues and organs as standardised uptake value (SUV). Values are quoted as mean ± standard error of mean (SEM) for each group of four animals.

[1] = Harderian gland, iv, 0.3 MBq, i.v., n=4, read-out: Harderian gl. SUV
[2] = Harderian gland, iv, 0.3 MBq, i.v., n=4, read-out: Harderian gl. activity amount
[3] = Harderian gland, iv, 0.3 MBq, i.v., n=8, read-out: Harderian gl. SUV
[4] = Harderian gland, iv, 0.3 MBq, i.v., n=8, read-out: Harderian gl. activity amount
[5] = Harderian gland, sc, 0.3 MBq, s.c., n=4, read-out: Harderian gl. SUV
[6] = Harderian gland, sc, 0.3 MBq, s.c., n=4, read-out: Harderian gl. activity amount
[7] = adrenals, iv, 0.3 MBq, i.v., n=4, read-out: Adrenals SUV
[8] = adrenals, iv, 0.3 MBq, i.v., n=4, read-out: Adrenals activity amount
[9] = adrenals, iv, 0.3 MBq, i.v., n=8, read-out: Adrenals SUV
[10] = adrenals, iv, 0.3 MBq, i.v., n=8, read-out: Adrenals activity amount
[11] = adrenals, sc, 0.3 MBq, s.c., n=4, read-out: Adrenals SUV
[12] = adrenals, sc, 0.3 MBq, s.c., n=4, read-out: Adrenals activity amount
[13] = blood, sc, s.c., n=4, read-out: Blood SUV
[14] = brain, iv, 0.3 MBq, i.v., n=4, read-out: Brain SUV
[15] = brain, iv, 0.3 MBq, i.v., n=4, read-out: Brain activity amount
[16] = brain, iv, 0.3 MBq, i.v., n=8, read-out: Brain SUV
[17] = brain, iv, 0.3 MBq, i.v., n=8, read-out: Brain activity amount
[18] = brain, sc, 0.3 MBq, s.c., n=4, read-out: Brain SUV
[19] = brain, sc, 0.3 MBq, s.c., n=4, read-out: Brain activity amount
[20] = carcass, iv, 0.3 MBq, i.v., n=4, read-out: Carcass activity amount
[21] = carcass, iv, 0.3 MBq, i.v., n=8, read-out: Carcass activity amount
[22] = carcass, sc, 0.3 MBq, s.c., n=4, read-out: Carcass activity amount
[23] = femur, iv, 0.3 MBq, i.v., n=4, read-out: Femur SUV
[24] = femur, iv, 0.3 MBq, i.v., n=4, read-out: Femur activity amount
[25] = femur, iv, 0.3 MBq, i.v., n=8, read-out: Femur SUV
[26] = femur, iv, 0.3 MBq, i.v., n=8, read-out: Femur activity amount

SMILES: CSCC[C@@H]1NC(=O)[C@@H]2CSSC[C@H](NC(=O)[C@H](CO)NC(=O)[C@H](C)NC(=O)COCCOCCNC(=O)CN3CCN(CC(=O)O)CCN(CC(=O)O)CC3)C(=O)N[C@@H](CCCNC(=N)N)C(=O)N[C@@H]([C@@H](C)O)C(=O)N3CCC[C@H]3C(=O)N[C@@H](CCCCN)C(=O)N[C@@H](CC(=O)O)C(=O)N[C@H]3CSSC[C@H](NC(=O)[C@H](CCCCN)NC(=O)[C@H](CCCNC(=N)N)NC(=O)[C@H](CC(N)=O)NC1=O)C(=O)N[C@@H](CCCCN)C(=O)N[C@H]1CSSC[C@H](NC(=O)[C@@H]4CCCN4C(=O)[C@H](CC(=O)O)NC(=O)[C@H](C)NC3=O)C(=O)N[C@@H](C)C(=O)N[C@@H](CCCCN)C(=O)N[C@@H](CCC(=O)O)C(=O)N[C@@H]([C@@H](C)O)C(=O)NCC(=O)N[C@@H](CSSC[C@@H](C(N)=O)NC(=O)[C@H](CCCNC(=N)N)NC(=O)[C@H](CC(N)=O)NC1=O)C(=O)N1CCC[C@H]1C(=O)N[C@@H](Cc1ccc(O)cc1)C(=O)NCC(=O)N[C@@H](CCCCN)C(=O)N2 [[^64Cu]Cu-NOTA-HsTX1[R14A], metal not drawn]
- biological half-life of the total activity in the rat body (i.v.): 45.4 h
- SUV at 5 min [1]: 0.82 ± 0.12 SUV
- tissue uptake dose at 5 min [2]: 0.1 ± 0.02 %ID
- SUV at 1 h [3]: 0.3 ± 0.05 SUV
- tissue uptake dose at 1 h [4]: 0.04 %ID
- SUV at 4 h [1]: 0.23 ± 0.01 SUV
- tissue uptake dose at 4 h [2]: 0.03 %ID
- SUV at 24 h [3]: 0.56 ± 0.1 SUV
- tissue uptake dose at 24 h [4]: 0.08 ± 0.01 %ID
- SUV at 48 h [1]: 0.48 ± 0.05 SUV
- tissue uptake dose at 48 h [2]: 0.07 %ID
- SUV at 1 h [5]: 0.32 ± 0.01 SUV
- tissue uptake dose at 1 h [6]: 0.04 %ID
- SUV at 4 h [5]: 0.21 ± 0.01 SUV
- tissue uptake dose at 4 h [6]: 0.03 %ID
- SUV at 24 h [5]: 0.46 ± 0.01 SUV
- tissue uptake dose at 24 h [6]: 0.08 ± 0.01 %ID
- SUV at 48 h [5]: 0.44 ± 0.02 SUV
- tissue uptake dose at 48 h [6]: 0.06 ± 0.01 %ID
- SUV at 5 min [7]: 1.26 ± 0.48 SUV
- tissue uptake dose at 5 min [8]: 0.03 %ID
- SUV at 1 h [9]: 0.65 ± 0.37 SUV
- tissue uptake dose at 1 h [10]: 0.01 %ID
- SUV at 4 h [7]: 0.39 ± 0.05 SUV
- tissue uptake dose at 4 h [8]: 0.01 %ID
- SUV at 24 h [9]: 0.86 ± 0.11 SUV
- tissue uptake dose at 24 h [10]: 0.02 %ID
- SUV at 48 h [7]: 0.71 ± 0.04 SUV
- tissue uptake dose at 48 h [8]: 0.02 %ID
- SUV at 1 h [11]: 0.4 ± 0.08 SUV
- tissue uptake dose at 1 h [12]: 0.01 %ID
- SUV at 4 h [11]: 0.4 ± 0.02 SUV
- tissue uptake dose at 4 h [12]: 0.01 %ID
- SUV at 24 h [11]: 0.73 ± 0.1 SUV
- tissue uptake dose at 24 h [12]: 0.02 %ID
- SUV at 48 h [11]: 0.55 ± 0.33 SUV
- tissue uptake dose at 48 h [12]: 0.02 ± 0.01 %ID
- SUV at 5 min (blood, iv, 0.3 MBq, i.v., n=4, read-out: Blood SUV): 1.09 ± 0.62 SUV
- SUV at 1 h (blood, iv, 0.3 MBq, i.v., n=8, read-out: Blood SUV): 0.7 ± 0.23 SUV
- SUV at 4 h [13]: 0.47 ± 0.21 SUV
- SUV at 24 h [13]: 0.44 ± 0.04 SUV
- SUV at 48 h [13]: 0.3 ± 0.01 SUV
- SUV at 5 min [14]: 0.07 SUV
- tissue uptake dose at 5 min [15]: 0.05 %ID
- SUV at 1 h [16]: 0.05 ± 0.01 SUV
- tissue uptake dose at 1 h [17]: 0.05 ± 0.03 %ID
- SUV at 4 h [14]: 0.03 SUV
- tissue uptake dose at 4 h [15]: 0.05 ± 0.01 %ID
- SUV at 24 h [16]: 0.08 ± 0.01 SUV
- tissue uptake dose at 24 h [17]: 0.08 ± 0.03 %ID
- SUV at 48 h [14]: 0.07 SUV
- tissue uptake dose at 48 h [15]: 0.1 %ID
- SUV at 1 h [18]: 0.04 SUV
- tissue uptake dose at 1 h [19]: 0.06 ± 0.01 %ID
- SUV at 4 h [18]: 0.03 SUV
- tissue uptake dose at 4 h [19]: 0.05 %ID
- SUV at 24 h [18]: 0.06 SUV
- tissue uptake dose at 24 h [19]: 0.1 %ID
- SUV at 48 h [18]: 0.07 SUV
- tissue uptake dose at 48 h [19]: 0.09 %ID
- tissue uptake dose at 5 min [20]: 63.4 ± 6.19 %ID
- tissue uptake dose at 1 h [21]: 28.1 ± 1.55 %ID
- tissue uptake dose at 4 h [20]: 20.1 ± 1.68 %ID
- tissue uptake dose at 24 h [21]: 28.4 ± 3.49 %ID
- tissue uptake dose at 48 h [20]: 21.6 ± 1.04 %ID
- tissue uptake dose at 1 h [22]: 32.9 ± 2.62 %ID
- tissue uptake dose at 4 h [22]: 20.1 ± 1.28 %ID
- tissue uptake dose at 24 h [22]: 28.5 ± 1.49 %ID
- tissue uptake dose at 48 h [22]: 19.7 ± 2.74 %ID
- SUV at 5 min [23]: 3.04 ± 2.13 SUV
- tissue uptake dose at 5 min [24]: 1.32 ± 0.89 %ID
- SUV at 1 h [25]: 1.58 ± 0.58 SUV
- tissue uptake dose at 1 h [26]: 0.8 ± 0.21 %ID
- SUV at 4 h [23]: 0.87 ± 0.04 SUV
- tissue uptake dose at 4 h [24]: 0.55 ± 0.03 %ID
- SUV at 24 h [25]: 0.54 ± 0.06 SUV
- tissue uptake dose at 24 h [26]: 0.3 ± 0.06 %ID
